According to the nanobody polyreactivity screen of Harvey et al. (2022):

Assay: yeast display, Sf9 membrane polyspecificity reagent, FACS + sequencing; frameworks hold sequencing errors
How it was run: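 In a synthetic yeast display library (Saccharomyces cerevisiae BJ5465), nanobody expression was induced with galactose for 36–48 hours. FACS gates were set low and high (top ~1%) using anti-HA fluorescence for expression and streptavidin fluorescence for binding of the Sf9 membrane reagent. Each polyreactivity label is drawn from the gate of origin.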

Row | Sequence | polyreactivity (PSR sort gate)
1 | QVQLVESGGGLVQAGGSLRLSCAASGFIFRYNAMGWYRQAPGKEREFVAAISQGGASTYYADSVKGRFTISRDNAKNTVYLQMNSLKPEDTAVYYCAREPSIFTPSYDYWGQGTQVTVSS | low polyreactivity
2 | QVQLVESGGGLVQAGGSLRLSCADSGSTFRYNAMGWYREAPGKERELVADIRRSGGSTYYADSVKGRFTISRDKAKNTVYLQMNSLKPEDTAVYYCNAAVSRLYYHSYSYRSYYYWGQGTQVTVSS | high polyreactivity
3 | QVQLVESGGVLVQDGGSLRLSCAASGRIFGHYAMGWYRQAPGKERELVAAISWSGGSTYYADSVKARFTISRDNAKNTVYLQMKSLKPEDTAVYDCNTGRVRYQGVRYDYWGQGTQVTVSS | high polyreactivity
4 | QVQLVESGGGLVQAGGSLRLSCAASGRIFYYYAMGWYRQAPGKERELVAAIRWSGGSTYYADSVKGRFTISRDNEKNTVYLQMNSLKPEDTAVYYCAADSRTNGYDYWGQGTQVTVSS | high polyreactivity
5 | QVQLLESGGGLVQAGGSLRLSCAASGRIFYVNAMGWYRQSPGKERELVAGIDDGVTTYYADSVKGRFTISRDNAKNTVYLLMNRLKPEDTAVYYCAAETSTNPEAYEYWGQGTQVTVSS | low polyreactivity
6 | QVQLVESGGGLVQAGGSLRLSCAASGRIFWYYAMGWYRQAPGKERELVAAISWSGGTTYYADSVKGRFTISRDNAKNTVYLQMNSLKPEDTAVYYCAAVFQYGYGEDYWGQGTQVTVSS | high polyreactivity
7 | QVQLVESGGGLVQAGGSLRLSCAASGRTFWTNAMGWYRQAPGKERELVAAISYRAGSTYYADSVKGRFTISRDNAKNTVYLQMNSLKPEDTAVYYCATRAVYYYAGFDYWGQGTQVTVSS | high polyreactivity
8 | QVQHVESGGGIVQAGGSLRLSCAASGFTFWYYAMGWYRQAPGKERELVAVINTSGGSTYADSVKGRFTISRDNAKNTVFLQMNSLKPEDTAVYYCNKDFIYGYDAASYRPEYDYWGQGTQVTVSS | low polyreactivity
9 | QVQLVESGGGLVQAGGSLRLSCAASGRTFRRNAMGWYRQAPGKERELVAAISSRGGSTYYADSVKGRFTISRDNAKNSVYLQMNSLKPEDTAVYYCNKGTPPTGTLGDYEYWGQGTQVTVSS | high polyreactivity
10 | QVQLVESGGGLVQAGGSLRLSCAASGRIFRYYVMGWYRQAPGKERELVAAISRSGGTTYYADSVKGRFTISRDNAKNTVYLQMNSLKPEDTAVYYCAAVYGRDPGDYWGQGTQVTVSS | high polyreactivity
11 | QVQLVESGGGLVQAGGSLRLSCAASGSIFPTNTMGWYRQAPGKERELVASINSDGSTNYADSVKGSFTISRDNAKNTVYLQMNSLKPEDTAVYYWAADTQGSEYEFWGQGTQVTVSS | low polyreactivity
12 | QVQLVESGGGVVQAGGSLRLSCAASGSIFKSYAMGWYRQAPGKERELVAAITWSGGSTHYADSVKGRFTISRDNAKNTVYLQMNSLKPEDTAVYYCAADGYTGQAELDSWGQGTQVTVSS | low polyreactivity
13 | QVQLVESGGGLVQAGGSLRLSCAASGSTCILNAMGWYRQAPGKERELVATISSSDTSTYYADSVKGRFTISRDNAKNTVYLQMNCLKPEDTAVYYCNADYYTTSYLQGVYHYGVEYDFWGQGTQVTVSS | low polyreactivity
14 | QFQLVESGVGLVQAGARLRLSSAASGFTIKYYAMGWYRQAPGKERELVATITRGGSTNYADSVKGRFTISRDNAKNTVYLQMNSLNPEDTAVYYCAKGYPYYYYDYDSWGQGTQVTVSS | high polyreactivity
15 | QVQIVESGGGLVQAGRSLRLSCAASGLIFRAYAMGWYRQAPGKDRELVAAITRSGGRTYYADSVKGRFTISRDNAKNTVYLQMNTLKPVDTAVYYSAAEYGNTYSSYTYDYWGQGTQVNVSS | high polyreactivity
16 | QVQLVESGGGLVQAGGSLRLICAASGFIFTPYAMGWYRQAPGKERELVAAITWRGARTYYADSVKGRFTISRDNAKNTVYLQMNSLKPEDTAVYYCAVAYWNRQSLFRMYYWGQGTQVTVSS | high polyreactivity
17 | QVQLVESGGGLLQAGGSLRLSCAASGRNFTHNAMGWYRQAPRKERELVAAITSGGRTTYADSVKGRFTISRDNAKNTVYLQMNSLKPEDSAVYYCNADTGLGSLDFDKRDYWGQGTQVTVSS | low polyreactivity
18 | QVQLVESGGGLVQAGGSLRLSCAASGNIFPRYAMGWYRQATGKERELVAAITWRTSSTYYADSVKGRFTISRDNAKNTVYLQMNSLKPEDTAVYYCAKTSSRIAGEYWGQGTQVTVSS | low polyreactivity
19 | QVQLVDSGGGLVQAGGSLRLSCAASGFIFIFYTMGWYRQAPGNERELVAAISRSGGSTYYADSVKGRFTISRDNAKNTVYLQMNSLKPEDTAVYYCAARAKLSHRWRSYYWGQGTQVTVSS | high polyreactivity
20 | QVQLQESGGALVQAGGSLRLSCAASGNIYDADIMGWYRQAPGKERELVTSITDGGSTNYADSVKGRFTISRDNAKNTVYLQMNSLKPQDTAVYYCAAIAYPDIPTSFDYNSDYSYWGQGTQVTVSS | low polyreactivity
21 | QFQLVESGGGLVQAGGSLRSSCAASGFIFREYAMGWYRQAPGKERELVAAISTSGGDTYYADSVKGRFTISRDNAKNTVYLQMNSLKPEDTAVYYCAAEYDGYWDSNRGNYWGQGTQVTVSS | low polyreactivity
22 | QVQLVESGGGLVQAGGSLRLSCAASGSIFKGYAMGWYRQAPGKERELVAAITYSGGGTYYADSVKGRFTISRDNAKNTVYIQMNILKPEDTAVYYCNADRYYPDDLSDGVGTYDYWGQGTQVTVSS | low polyreactivity

Row | Sequence | polyreactivity (PSR sort gate)
23 | QVQLVESGGGLVQAGGSLRLSCAASGRIGPNVMGWYRQPPGKERELVARITWRGGSTYYADSVKGRFTISRDNAKNTVYLQMNSLKPEDTAVYYCNARGHGGWGTSMYYWGQGTQVTVSS | high polyreactivity
24 | QVQLVESGGGLVQAGGSLRLSCAASGSILAINAMGWYRQAPGKERELVAAINWSRGSTFYADSVKGRFTISRDNAKNTVYLQMNSLKPEDTAVYYCNVEWTDSERGDYYVDYDYWGQGTQVTVSS | low polyreactivity
25 | QVQLVESGGGLVHAGGSLRLSCAASGLTFDWYTMGWYRQAPGKERELVATINSGGSTDYADSVKGRFTISRDNAKNTVYLQMNSLKPEDTAVYYCNAEYGYSGVGDDYWGQGTQVTVSS | low polyreactivity
26 | QVQLQESSGGLVQAGGSLRMSCAASGTIFHFHIMGWYRQAPGKVREFVAAISYGTSTYYADSVKGRFTISRDNAKNTVYLLMNRQKPEDTEVYYCAVYEYLEVYCWYWGQGTQGTVSS | low polyreactivity
27 | QVQLVESGGGLVQAGGSLRLSCAASGSTFDVYAMGWYRQAPGKERELVAAITQSGGSTYYADSVKGRFTISRDNAKNTVYLQMNSLKTEDTAVYYCAAREWRSFDYWGQGTQVTVSS | low polyreactivity
28 | QVQLVESGGGLVQAGGSLRLCCAASGFTFPYNGMGWYRQAPGKERELVASISWSGASTYYADSVKGRFTISRDNAKNTVYLQMNSLKPEDTAVYYCAADPGYYSWGCSQDDYWGQGTQVTVSS | low polyreactivity
29 | QVQLVESGGGLVQAGGSLRLSCAASGSIFEWYAMGWYRQAPGKERELVADISSLGSTYYADSVKGRFTISRDNAKNTVYLQMNSLKPEDTAVYYCNTSYIIWYDSWGQGTQVTVSS | low polyreactivity
30 | QVKLVESGGGLVQAGVSLRLSCAASGRIFVFYAMGWYRQAPGKERELVAAITASSTRTYYADSVKGRFTISRAHAKNTVYLQMNSLKPEDTAVYYCARDIRQYILYGRGDYWGQGTQVTVSS | low polyreactivity
31 | QVQLVESGGGLVQAGGSLRLSCAASGFILGQYTMGWYRQAPGKERELVASINGSDGITYYADSVKGRFTISRDNAKNTVYLQMNSLKPEDTAVYYCARPPRHYTFWGRRFYYWGQGTQVTVSS | low polyreactivity
32 | QVQLVESGGGLVQAGGSLRLSCAASGSIFDGYAMGWYTQAPGKERELVADINNGADTYYADSVKGRFTISRDNAKNTVYLQMYSLKPEDTAVYYCAARYGTDTDIQNVARYDYWGQGTQVTVSS | low polyreactivity
33 | QVQLVESGGGLVQAGGSLRLSSAACGTIFVLNAMGWYRPAPGKERELVAAITNVGSTYYADSVKGRFTISRDNAKNTFYLQMNSLKPEDTAVYYCNADPGEVLVGYDYWGQGTQVTVSS | low polyreactivity
34 | QVQLVESGGGLVQAGGSLRLSCAASGTFGGYAMGWYRQAPGKEREFVAAIDYGGGSTYYADSVKGRFTMSRDNAKNTVYLQMNSLKPEDTAVYYCAAEHWGYTYDQDFSTWATIYEYWGQGTQVTVSS | high polyreactivity
35 | QVQLVESGGGLVQAGGSLRLSCAATGSIIVYNTMGWYRQAPGKERELVAAITVRDDSTYYADSVKGRFTISRDNAKNTVYLQMNSLKPEDTAVYYCNARGNFLIGRDYWGQGTQVTVSS | low polyreactivity
36 | QGQLVESGGGLVQAGGSLRLSCAASGSIFRPYPMGWYRQAPGKERELVATISSTGITNYADSVKGRFTISRDNAKNTVYLQMNSLKPEDTADYYCSAGLWYSYDYWGQGTQVTVSS | high polyreactivity
37 | QVQLVESGGGLVQAGGSLRLICAASGSIFGLYVMGWYRQAPGKERELVATITSGGSTYYADSVKGRFTISRDNAKNTVYLQMNSLKPEDTAVYYCNTRWTPSREYDYWGQGTQVTVSS | low polyreactivity
38 | QVQLVESGGGLVQAGGSLRLSCAASGSTFRGYAMGWYRQAPGKERELVATITSGGSTKYADSVKGRFTISRDNAKNTVYLQMNSLKPEDTAVYYCNAVPRSWSPYSHWFDYWGQGTQVTVSS | low polyreactivity
39 | QVQVVESGGGLVQAGGSLRLSCAASGSTFGYYAMGWYRQAPGKERELVAAISGTGSTYYADSVKGRFTISRDNAKNTVFLQMNSLKPEDTAVYYCAAYPRGSQRYNYWGQGTQVTVSS | high polyreactivity
40 | QVQLVESGGGLVQAGGSLRLSCAASGSISYQNAMGWYRQAPGKERELVAAISGDGDSTYYADSVKGRFTISRDNAKNTVYLQMNSLKPEDTAVYYCAAEPNVYFSVFVLFPSDYWGQGTQVTVSS | low polyreactivity
41 | QVQLVESGGGLVQAGGSLRLSCAASGSISYYNAMGWYRQAPGKERELVATITDSGGSTYYADSVKGRFTISRDNAKNTVYLQMNSLKPEDTAVYYCAVDYTEWYSIYDYWGQGTEVTVSS | low polyreactivity
42 | QVQLVESGGDLVQAGGSLRLSCAASGSIFYINAMGWYRQAPGKERELVASISYSGTSTYYADSVKGRFTISRDNAKNTVYLQMNSLKPEDTAVYYCNAEDTPGAGDGYWGQGTQVTVSS | low polyreactivity
43 | QVQLVESGGGLVQAGGSLRLICAASGRILYYNVMVWYRQAPGKEREMVASITSVVSTNYADSVKGRFTISRDNAKNTVYLQMNSLKPEDTAVYYCAARYFSGSYSDQIWGMDYWGQGTQLTVSS | high polyreactivity
